In US20240317851A1 (LANOVA MEDICINES, published 2024):

What was measured:
human Claudin 3 [1] = target: T1, human Claudin 3 (human, UniProt O15551 1-220); assay: flow cytometry, CHOK1/H_CLDN3 cells
T1 construct: whole, on cells; also called CLDN3
T1 sequence (looked up): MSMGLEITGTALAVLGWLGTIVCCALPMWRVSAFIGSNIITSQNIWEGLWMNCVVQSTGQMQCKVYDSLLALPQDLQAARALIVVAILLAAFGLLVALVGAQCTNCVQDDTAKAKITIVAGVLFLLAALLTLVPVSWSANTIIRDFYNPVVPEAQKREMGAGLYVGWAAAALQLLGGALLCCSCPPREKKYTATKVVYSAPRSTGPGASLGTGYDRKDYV
Experimental: (§1) In this example, cell-based binding of hu Abs on human CLDN3 expressing cells were assessed using flow cytometry.
(§2) Briefly, the CHOK1/H_CLDN3 cells were incubated with hu-Abs (from 100 nM, 6 folds dilution, 8 points). After incubation at 4° C. for 60 minutes. Cells were pelleted and washed twice with 2% FBS/PBS buffer, and stained with fluorescent conjugated secondary antibody at 4° C. for 30 minutes. After that the cells were washed twice and resuspended in 80 μL of 2% FBS/PBS buffer. Fluorescent signal of binding was detected using Agilent. The EC50 was calculated using the GraphPad software.

human Claudin 9 [2] = target: T2, human Claudin 9 (human, UniProt O95484 1-217); assay: flow cytometry, HEK293/H_CLDN9 cells
T2 construct: whole, on cells; also called CLDN9; CLND9
T2 sequence (looked up): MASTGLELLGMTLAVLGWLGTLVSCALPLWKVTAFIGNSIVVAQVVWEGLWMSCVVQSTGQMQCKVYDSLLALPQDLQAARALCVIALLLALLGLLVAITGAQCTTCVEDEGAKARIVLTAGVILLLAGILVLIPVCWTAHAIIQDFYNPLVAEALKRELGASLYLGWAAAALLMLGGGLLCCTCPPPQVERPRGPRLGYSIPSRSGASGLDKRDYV
Experimental: In this example, cell-based binding of z5 toward human CLDN9 engineering expressing cells were assessed using flow cytometry.
as §2, with “2 cell lines” for “the CHOK1/H_CLDN3 cells”, “antibodies” for “hu-Abs”, “points)” for “points). After incubation”

human Claudin 3 [3] = target: T1, human Claudin 3; assay: flow cytometry, CHOK1/H_CLDN3 cells, Ab titrated from 100 nM
Experimental: as §1, §2

human Claudin 6 [4] = target: T3, human Claudin 6 (human, UniProt P56747 1-220); assay: flow cytometry, HEK293/H_CLDN6 cells, Ab titrated from 100 nM
T3 construct: whole, on cells; also called CLDN6
T3 sequence (looked up): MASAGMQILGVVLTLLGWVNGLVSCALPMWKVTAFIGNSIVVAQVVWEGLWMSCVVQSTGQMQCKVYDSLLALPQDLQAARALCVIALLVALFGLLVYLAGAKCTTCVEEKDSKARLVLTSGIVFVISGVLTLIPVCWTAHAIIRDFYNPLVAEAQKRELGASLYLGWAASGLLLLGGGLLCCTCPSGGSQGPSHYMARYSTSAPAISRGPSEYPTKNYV
Experimental: In this example, cell-based binding of humanized antibodies (hu Abs) on human CLDN6 expressing cells were assessed using flow cytometry.
as §2, with “HEK293/H_CLDN6” for “CHOK1/H_CLDN3”

human Claudin 9 [5] = target: T2, human Claudin 9; assay: flow cytometry, HEK293/H_CLDN9 cells, Ab titrated from 100 nM
Experimental: In this example, cell-based binding of hu Abs on human CLDN9 expressing cells were assessed using flow cytometry.
as §2, with “HEK293/H_CLDN9” for “CHOK1/H_CLDN3”, “software (LaJolla, CA).” for “software.”

human Claudin 6 [6] = target: T3, human Claudin 6; assay: cell-based or functional assay

| Binder | Top MFI (human Claudin 3 [3]) | Top MFI (human Claudin 6 [4]) | Top MFI (human Claudin 9 [5]) | binding result (human Claudin 3 [1]) | binding result (human Claudin 9 [2]) | Min cell viability, OV90 (CLDN6 low) (human Claudin 6 [6]) [%] | Min cell viability, OVCAR-3 (CLDN6 mid) (human Claudin 6 [6]) [%] | Min cell viability, PA-1 (CLDN6 high) (human Claudin 6 [6]) [%] |
| --- | --- | --- | --- | --- | --- | --- | --- | --- |
| 97-C10E1-2-P1.z3 (antibody, V domains shown) VH: QVQLVQSGAEVKKPGASVKVSCKASGYAFTGYTMNWVRQAPGQGLEWIGLSNPYNAGTIYNQKFKGRVTMTVDKSTSTVYMELSSLRSEDTAVYYCARNYYYGSSYAYYYAMDYWGQGTTVTVSS VL: DAQMTQSPSSLSASVGDRVTITCRSSTGAVTTSNYANWVQQKPGKAPKLLIGGTNNRAPGVPSRFSGSGSGTDATLTISSLQPEDFATYYCALWYSNHWVFGGGTKVEIK | 133 | 27400 | 594 | no binding (tested: 100 nM (highest concentration tested)) | no binding (tested: 100 nM (highest concentration tested)) | – | – | – |
| z5-DXD (antibody, V domains shown, DXD conjugated to the antibody; residues and drug load not stated) VH: QVQLVQSGAEVKKPGASVKVSCKASGYAFTGYTMNWVRQAPGQGLEWIGLSNPYNAGTIYNQKFKGRVTMTVDKSTSTVYMELSSLRSEDTAVYYCARNYYYGSSYAYYYAMDYWGQGTTVTVSS VL: DIVVTQSPSSLSTSVGDRVTITCRSSTGAVTTSNYANWVQEKPGKAFKGLIGGTNNRAPGVPARFSGSLSGDDAALTISSAQPEDFATYFCALWYSNHWVFGGGTKVEIK | – | – | – | – | – | 90.5 | 24.5 | 14.1 |
| 97-C10E1-2-P1.z6 (antibody, V domains shown) VH: QVQLQQSGAEVKKPGASVKVSCKASGYAFTGYTMNWVRQAPGQNLEWIGLSNPYNAGTIYNQKFKGRVTLTVDKSTSTVYMELLSLRSEDTAVYYCARNYYYGSSYAYYYAMDYWGQGTTVTVSS VL: EAVMTQSPATLSVSPGERATLSCRSSTGAVTTSNYANWVQQKPGQAPRLLIGGTNNRAPGIPARFSGSGSGDEATLTISSLQSEDFAVYFCALWYSNHWVFGGGTKVEIK | 139 | 32200 | 417 | no binding (tested: 100 nM (highest concentration tested)) | no binding (tested: 100 nM (highest concentration tested)) | – | – | – |
| z5-LM-D01 (antibody, V domains shown, LM-D01 conjugated to the antibody (structure only as a drawing); residues and drug load not stated) VH: QVQLVQSGAEVKKPGASVKVSCKASGYAFTGYTMNWVRQAPGQGLEWIGLSNPYNAGTIYNQKFKGRVTMTVDKSTSTVYMELSSLRSEDTAVYYCARNYYYGSSYAYYYAMDYWGQGTTVTVSS VL: DIVVTQSPSSLSTSVGDRVTITCRSSTGAVTTSNYANWVQEKPGKAFKGLIGGTNNRAPGVPARFSGSLSGDDAALTISSAQPEDFATYFCALWYSNHWVFGGGTKVEIK | – | – | – | – | – | 87.9 | 0.2 | 7.75 |
| z5-LM-D03 (antibody, V domains shown, LM-D03 conjugated to the antibody (structure only as a drawing); residues and drug load not stated) VH: QVQLVQSGAEVKKPGASVKVSCKASGYAFTGYTMNWVRQAPGQGLEWIGLSNPYNAGTIYNQKFKGRVTMTVDKSTSTVYMELSSLRSEDTAVYYCARNYYYGSSYAYYYAMDYWGQGTTVTVSS VL: DIVVTQSPSSLSTSVGDRVTITCRSSTGAVTTSNYANWVQEKPGKAFKGLIGGTNNRAPGVPARFSGSLSGDDAALTISSAQPEDFATYFCALWYSNHWVFGGGTKVEIK | – | – | – | – | – | 30.4 | 20.3 | 12.1 |
| 97-C10E1-2-P1.z15 (antibody, V domains shown) VH: QVQLQQSGAEVKKPGASMKISCKASGYAFTGYTMNWVRQAPGQNLEWIGLSNPYNAGTIYNQKFKGRATLTVDKSTSTAYMELLSLRSEDTAVYYCARNYYYGSSYAYYYAMDYWGQGTTVTVSS VL: DIVVTQSPSSLSTSVGDRVTITCRSSTGAVTTSNYANWVQEKPGKAFKGLIGGTNNRAPGVPARFSGSLSGDDAALTISSAQPEDFATYFCALWYSNHWVFGGGTKVEIK | 138 | 128000 | 186 | no binding (tested: 100 nM (highest concentration tested)) | no binding (tested: 100 nM (highest concentration tested)) | – | – | – |
| 97-C10E1-2-P1.z5 (antibody, V domains shown, also called candidate antibody) VH: QVQLVQSGAEVKKPGASVKVSCKASGYAFTGYTMNWVRQAPGQGLEWIGLSNPYNAGTIYNQKFKGRVTMTVDKSTSTVYMELSSLRSEDTAVYYCARNYYYGSSYAYYYAMDYWGQGTTVTVSS VL: DIVVTQSPSSLSTSVGDRVTITCRSSTGAVTTSNYANWVQEKPGKAFKGLIGGTNNRAPGVPARFSGSLSGDDAALTISSAQPEDFATYFCALWYSNHWVFGGGTKVEIK | 254 | – | 1560 | no binding (tested: 100 nM (highest concentration tested)) | – | – | – | – |

More lines, main results first:

| Top MFI (human Claudin 3 [3]) | Top MFI (human Claudin 6 [4]) | Top MFI (human Claudin 9 [5]) | Binder | binding result (human Claudin 3 [1]) | binding result (human Claudin 9 [2]) | Min cell viability, OV90 (CLDN6 low) (human Claudin 6 [6]) [%] | Min cell viability, OVCAR-3 (CLDN6 mid) (human Claudin 6 [6]) [%] | Min cell viability, PA-1 (CLDN6 high) (human Claudin 6 [6]) [%] |
| --- | --- | --- | --- | --- | --- | --- | --- | --- |
| 131 | 15500 | 315 | 97-C10E1-2-P1.z13 (antibody, V domains shown) VH: QVQLQQSGAEVKKPGASMKISCKASGYAFTGYTMNWVRQAPGQNLEWIGLSNPYNAGTIYNQKFKGRATLTVDKSTSTAYMELLSLRSEDTAVYYCARNYYYGSSYAYYYAMDYWGQGTTVTVSS VL: DAQMTQSPSSLSASVGDRVTITCRSSTGAVTTSNYANWVQQKPGKAPKLLIGGTNNRAPGVPSRFSGSGSGTDATLTISSLQPEDFATYYCALWYSNHWVFGGGTKVEIK | no binding (tested: 100 nM (highest concentration tested)) | no binding (tested: 100 nM (highest concentration tested)) | – | – | – |
| 247 | 207000 | 2520 | 97-C10E1-2-P1.z2 (antibody, V domains shown) VH: QVQLVQSGAEVKKPGASVKVSCKASGYAFTGYTMNWVRQAPGQGLEWIGLSNPYNAGTIYNQKFKGRVTMTVDKSTSTVYMELSSLRSEDTAVYYCARNYYYGSSYAYYYAMDYWGQGTTVTVSS VL: EAVVTQSPATLSVSPGERATLSCRSSTGAVTTSNYANWVQEKPGQAFRGLIGGTNNRAPGIPARFSGSLSGDEATLTISSLQSEDFAVYFCALWYSNHWVFGGGTKVEIK | no binding (tested: 100 nM (highest concentration tested)) | – | – | – | – |
| 137 | 16300 | 542 | 97-C10E1-2-P1.z8 (antibody, V domains shown) VH: QVQLQQSGAEVKKPGASVKVSCKASGYAFTGYTMNWVRQAPGQNLEWIGLSNPYNAGTIYNQKFKGRVTLTVDKSTSTVYMELLSLRSEDTAVYYCARNYYYGSSYAYYYAMDYWGQGTTVTVSS VL: DAQMTQSPSSLSASVGDRVTITCRSSTGAVTTSNYANWVQQKPGKAPKLLIGGTNNRAPGVPSRFSGSGSGTDATLTISSLQPEDFATYYCALWYSNHWVFGGGTKVEIK | no binding (tested: 100 nM (highest concentration tested)) | no binding (tested: 100 nM (highest concentration tested)) | – | – | – |
| 160 | 121000 | 258 | 97-C10E1-2-P1.z10 (antibody, V domains shown) VH: QVQLQQSGAEVKKPGASVKVSCKASGYAFTGYTMNWVRQAPGQNLEWIGLSNPYNAGTIYNQKFKGRVTLTVDKSTSTVYMELLSLRSEDTAVYYCARNYYYGSSYAYYYAMDYWGQGTTVTVSS VL: DIVVTQSPSSLSTSVGDRVTITCRSSTGAVTTSNYANWVQEKPGKAFKGLIGGTNNRAPGVPARFSGSLSGDDAALTISSAQPEDFATYFCALWYSNHWVFGGGTKVEIK | no binding (tested: 100 nM (highest concentration tested)) | no binding (tested: 100 nM (highest concentration tested)) | – | – | – |
